Assays:
[1] = cited from earlier work
[2] = normal and diabetic rats; retention of immunoreactivity sRAGE; cited from earlier work
S100b (S100) = target: T1, S100b (S100) (Homo sapiens, UniProt P04271); assay: In vitro ligand binding ELISA, immobilized S100b; settings: various dilutions of fusion protein; FIG. 7
T1 sequence (P04271 1-92): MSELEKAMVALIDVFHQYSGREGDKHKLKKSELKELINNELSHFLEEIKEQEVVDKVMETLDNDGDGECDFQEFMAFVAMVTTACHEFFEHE
Experimental: (§1) For example, the RAGE fusion protein may be used in a binding assay to identify potential RAGE ligands. In one example embodiment of such a binding assay, a known RAGE ligand may coated onto a solid substrate (e.g., Maxisorb plates) at a concentration of about 5 micrograms per well, where each well contains a total volume of about 100 microliters (μL). The plates may be incubated at 4° C. overnight to allow the ligand to absorb. Alternatively, shorter incubation periods at higher temperature (e.g., room temperature) may be used. […] The fusion protein bound to the immobilized ligand may be detected in a variety of ways. […] The bound complex may be detected by adding the alkaline phosphatase substrate, para-nitrophenylphosphate (PNPP), and measuring conversion of PNPP to para-nitrophenol (PNP) as an increase in absorbance at 405 nm. […] Binding was detected by the addition of an immunodetection complex containing a monoclonal mouse anti-human IgG1 diluted 1:11,000 to a final assay concentration (FAC) of 21 ng/100 μL, a biotinylated goat anti-mouse IgG diluted 1:500, to a FAC of […], and an avidin-linked alkaline phosphatase. […] Binding of the complex to the immobilized fusion protein was quantified by measuring conversion of PNPP to para-nitrophenol (PNP) which was-measured spectrophotornetrically at 405 nm. […]

amphoterin (Ampho) = target: T2, amphoterin (Ampho) (Homo sapiens, UniProt P09429); assay: In vitro ligand binding ELISA, immobilized amphoterin; settings: various dilutions of fusion protein; FIG. 7
T2 sequence (P09429 1-215): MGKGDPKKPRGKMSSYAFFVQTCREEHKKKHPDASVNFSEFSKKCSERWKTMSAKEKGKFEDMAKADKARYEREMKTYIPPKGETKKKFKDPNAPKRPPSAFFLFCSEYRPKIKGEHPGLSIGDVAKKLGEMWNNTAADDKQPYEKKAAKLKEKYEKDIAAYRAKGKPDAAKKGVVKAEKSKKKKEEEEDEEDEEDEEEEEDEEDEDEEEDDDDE
Experimental: as §1

amyloid-beta (Abeta) = target: T3, amyloid-beta (Abeta) (Homo sapiens, UniProt P05067); assay: In vitro ligand binding ELISA, immobilized amyloid-beta; settings: various dilutions of fusion protein; FIG. 7
T3 construct: Amyloid Beta (1-40) from Biosource; purchased Biosource
T3 sequence (P05067 672-711 limits assumed): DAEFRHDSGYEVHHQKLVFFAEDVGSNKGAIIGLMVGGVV
Experimental: as §1

APP transgenic mice = assay: Mouse model of AD (APP transgenic mice); type: in vivo; settings: treated for 3 months, versus vehicle and human IgG1
Experimental: Experiments were performed to evaluate whether TTP-4000 could affect amyloid formation and cognitive dysfunction in a mouse model of AD. The experiments utilized transgenic mice expressing the human Swedish mutant amyloid precursor protein (APP) under the control of the PDGF-B chain promoter. Over time, these mice generate high levels of the RAGE ligand, amyloid beta (Aβ).
The APP mice (male) used in this experiment were designed by microinjection of the human APP gene (with the Swedish and London mutations) into mouse eggs under the control of the platelet-derived growth factor B (PDGF-B) chain gene promoter. The mice were generated on a C57BL/6 background and were developed by Molecular Therapeutics Inc. Animals were fed ad libituin and maintained by brother sister mating. The mice generated from this construct develop amyloid deposits starting at 6 months of age. Animals were aged for 6 months and then maintained for 90 days and sacrificed for amyloid quantification.
APP transgenic mice were administered vehicle or TTP4000 every other day [qod (i.p.)] for 90 days starting at 6 months of age. At the end of the experiment, animals were sacrificed and examined for AP plaque burden in the brain (i.e., plaque number). A 6-month control APP group was used to determine the baseline of amyloid deposits. In addition, at the end of the study, the animals were subjected to behavioral (Morris water maze) analysis. The investigators were blinded to the study compounds. Samples were given to the mice at 0.25 ml/mouse/every other day.
For histological examination, the animals were anesthetized with an intraperitoneal injection (IP) of sodium pentobarbital (50 mg/kg). The animals were transcardially perfused with 4° C., phosphate-buffered saline (PBS) followed by 4% paraformaldehyde. The brains were removed and placed in 4% paraformaldehyde over night. The brains were processed to paraffin and embedded. Ten serial 30-μm thick sections through the brain were obtained. Sections were subjected to primary antibody overnight at 4° C. (Aβ peptide antibody) in order to detect the amyloid deposits in the brain of the transgenic animals (Guo et al., J. Neurosci., 22:5900-5909 (2002)). Sections were washed in Tris-buffered saline (TBS) and secondary antibody was added and incubated for 1 hour at room temperature. After washing, the sections were incubated as instructed in the Vector ABC Elite kit (Vector Laboratories) and stained with […] (DAB). The reactions were stopped in water and cover-slipped after treatment with xylene. The amyloid area in each section was determined with a computer-assisted image analysis system, consisting of a Power Macintosh computer equipped with a Quick Capture frame grabber card, Hitachi CCD camera mounted on an Olympus microscope and camera stand. NIH Image Analysis Software, v. 1.55 was used. The images were captured and the total area of amyloid was determined over the ten sections. A single operator blinded to treatment status performed all measurements. Summing the amyloid volumes of the sections and dividing by the total number of sections was done to calculate the amyloid volume.
For quantitative analysis, an enzyme-linked immunosorbent assay (ELISA) was used to measure the levels of human total Aβ, Aβtotal and Aβ1-42 in the brains of APP transgenic mice (Biosource International., Camarillo, Calif.). Aβtotal and Aβ1-42 were extracted from mouse brains by guanidine hydrochloride and quantified as described by the manufacturer. […]

human sRAGE: human soluble RAGE (e.g., SEQ ID NO: 4) [reference compound]
half-life in plasma [1]: about 2 hours | half-life [2]: less than 2 hours

sRAGE: soluble RAGE: the RAGE protein that does not include the transmembrane region or the cytoplasmic tail [reference compound]
half-life in plasma [1]: only a few hours

B1: TTP-3000: three domain RAGE fusion protein (SEQ ID NO: 35): human RAGE amino acids 1-136 linked to CH2 and CH3 domains of human IgG (protein)
chain: MAAGTAVGAWVLVLSLWGAVVGAQNITARIGEPLVLKCKGAPKKPPQRLEWKLNTGRTEAWKVLSPQGGGPWDSVARVLPNGSLFLPAVGIQDEGIFRCQAMNRNGKETKSNYRVRVYQIPGKPEIVDSASELTAGPSVFLFPPKPKDTLMISRTPEVTCVVVDVSHEDPEVKFNWYVDGVEVHNAKTKPREEQYNSTYRVVSVLTVLHQDWLNGKEYKCKVSNKALPAPIEKTISKAKGQPREPQVYTLPPSRDELTKNQVSLTCLVKGFYPSDIAVEWESNGQPENNYKTTPPVLDSDGSFFLYSKLTVDKSRWQQGNVFSCSVMHEALHNHYTQKSLSLSPGK
binding to immobilized S100b (absorbance at 405 nm) (S100b (S100)): specifically interact | binding to immobilized amphoterin (absorbance at 405 nm) (amphoterin (Ampho)): specifically interact | binding to immobilized amyloid-beta (absorbance at 405 nm) (amyloid-beta (Abeta)): specifically interact

B2: rodent sRAGE: rodent soluble RAGE (protein, UniProt Q62151 23-340, looked up)
extracellular domain: GQNITARIGEPLVLSCKGAPKKPPQQLEWKLNTGRTEAWKVLSPQGGPWDSVARILPNGSLLLPATGIVDEGTFRCRATNRRGKEVKSNYRVRVYQIPGKPEIVDPASELTASVPNKVGTCVSEGSYPAGTLSWHLDGKLLIPDGKETLVKEETRRHPETGLFTLRSELTVIPTQGGTHPTFSCSFSLGLPRRRPLNTAPIQLRVREPGPPEGIQLLVEPEGGIVAPGGTVTLTCAISAQPPPQVHWIKDGAPLPLAPSPVLLLPEVGHEDEGTYSCVATHPSHGPQESPPVSIRVTETGDEGPAEGSVGESGLGTLA
modifications: extracellular domain
notes: rodent soluble RAGE
half-life [2]: approximately 20 hours

B3: mouse sRAGE: mouse soluble RAGE used as comparator in the AD mouse model (protein, UniProt Q62151 23-340, looked up)
extracellular domain: GQNITARIGEPLVLSCKGAPKKPPQQLEWKLNTGRTEAWKVLSPQGGPWDSVARILPNGSLLLPATGIVDEGTFRCRATNRRGKEVKSNYRVRVYQIPGKPEIVDPASELTASVPNKVGTCVSEGSYPAGTLSWHLDGKLLIPDGKETLVKEETRRHPETGLFTLRSELTVIPTQGGTHPTFSCSFSLGLPRRRPLNTAPIQLRVREPGPPEGIQLLVEPEGGIVAPGGTVTLTCAISAQPPPQVHWIKDGAPLPLAPSPVLLLPEVGHEDEGTYSCVATHPSHGPQESPPVSIRVTETGDEGPAEGSVGESGLGTLA
modifications: extracellular domain
notes: mouse soluble RAGE used as comparator in the AD mouse model
Aβ plaques in the brain (APP transgenic mice; FIG. 14A): fewer Aβ plaques | cognitive dysfunction (Morris water maze) (APP transgenic mice; FIG. 14B): less cognitive dysfunction
